# Source: patent US20140087995A1 (published 2014)
# Numbered stars: 1 amine (or outer) side, 2 acyl side, 3 side chain; on linkers, the order of the positions; unused ones are H or OH. Bridge positions count the residues as written; N and C are the ends. Side chains are listed from the residue outwards. Ends that are not written are not given here. * marks the point of attachment. C20 diacid = O=C(O)CCCCCCCCCCCCCCCCCCC(=O)*; γGlu = O=C(O)[C@H](CCC(=O)[*:2])N[*:1]; AEEA = NCCOCCOCC(=O)O
# T1: human amylin receptor (amylin 3(a) receptor: human calcitonin receptor with RAMP-3) (human, UniProt P30988 25-474; O60896 24-148)
# T1 construct: whole, on cells; also called hAmylin-R; hAmylinR
# T1 sequence (looked up) 1: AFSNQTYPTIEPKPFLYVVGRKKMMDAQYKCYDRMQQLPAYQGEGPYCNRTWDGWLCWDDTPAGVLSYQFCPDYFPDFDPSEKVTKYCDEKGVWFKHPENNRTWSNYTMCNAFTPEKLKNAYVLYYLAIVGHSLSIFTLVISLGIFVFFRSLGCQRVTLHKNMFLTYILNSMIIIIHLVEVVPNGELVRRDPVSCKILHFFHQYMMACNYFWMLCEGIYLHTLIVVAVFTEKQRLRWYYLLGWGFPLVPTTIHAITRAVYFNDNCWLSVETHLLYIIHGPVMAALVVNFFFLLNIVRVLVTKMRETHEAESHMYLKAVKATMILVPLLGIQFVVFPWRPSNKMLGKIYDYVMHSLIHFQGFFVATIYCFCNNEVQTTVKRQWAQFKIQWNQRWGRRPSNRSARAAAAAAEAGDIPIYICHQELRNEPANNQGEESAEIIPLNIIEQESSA
# T1 sequence (looked up) 2: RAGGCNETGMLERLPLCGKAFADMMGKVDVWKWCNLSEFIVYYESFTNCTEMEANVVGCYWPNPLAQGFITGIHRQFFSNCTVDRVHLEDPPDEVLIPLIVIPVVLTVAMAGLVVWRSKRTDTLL
# Target: T1, human amylin receptor (amylin 3(a) …)
# Assay: SPA displacement of 125I-rat amylin, hAmylin 3(a) receptor membranes
# Outline: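 SPA beads with BHK Amylin 3(a)/CRE-luc cell membranes (35 ng/μL final) in 50 mM Hepes pH 7.4, 1 mM CaCl2, 5 mM MgCl₂, 0.1% OA, 0.02% Tween20.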
row,IC50 [nM],Binder
1,0.791,"K([AEEA-γGlu-C20 diacid])CNTATCATQRLAKFLRHSSPNFGAIPSSTPVGSNTY-NH2 (disulfide 2-7; N-terminus assumed; SMILES CC[C@H](C)[C@H](NC(=O)[C@H](C)NC(=O)CNC(=O)[C@H](Cc1ccccc1)NC(=O)[C@H](CC(N)=O)NC(=O)[C@@H]1CCCN1C(=O)[C@H](CO)NC(=O)[C@H](CO)NC(=O)[C@H](Cc1c[nH]cn1)NC(=O)[C@H](CCCNC(=N)N)NC(=O)[C@H](CC(C)C)NC(=O)[C@H](Cc1ccccc1)NC(=O)[C@H](CCCCN)NC(=O)[C@H](C)NC(=O)[C@H](CC(C)C)NC(=O)[C@H](CCCNC(=N)N)NC(=O)[C@H](CCC(N)=O)NC(=O)[C@@H](NC(=O)[C@H](C)NC(=O)[C@@H]1CSSC[C@H](NC(=O)[C@@H](N)CCCCNC(=O)COCCOCCNC(=O)CC[C@H](NC(=O)CCCCCCCCCCCCCCCCCCC(=O)O)C(=O)O)C(=O)N[C@@H](CC(N)=O)C(=O)N[C@@H]([C@@H](C)O)C(=O)N[C@@H](C)C(=O)N[C@@H]([C@@H](C)O)C(=O)N1)[C@@H](C)O)C(=O)N1CCC[C@H]1C(=O)N[C@@H](CO)C(=O)N[C@@H](CO)C(=O)N[C@H](C(=O)N1CCC[C@H]1C(=O)N[C@H](C(=O)NCC(=O)N[C@@H](CO)C(=O)N[C@@H](CC(N)=O)C(=O)N[C@H](C(=O)N[C@@H](Cc1ccc(O)cc1)C(N)=O)[C@@H](C)O)C(C)C)[C@@H](C)O, also called 74; compound 74)"
2,0.666,"K([AEEA-γGlu-C20 diacid])CNTATCATQRLATFLRHSSPNFGAIPSSTPVGSNTY-NH2 (disulfide 2-7; N-terminus assumed; SMILES CC[C@H](C)[C@H](NC(=O)[C@H](C)NC(=O)CNC(=O)[C@H](Cc1ccccc1)NC(=O)[C@H](CC(N)=O)NC(=O)[C@@H]1CCCN1C(=O)[C@H](CO)NC(=O)[C@H](CO)NC(=O)[C@H](Cc1c[nH]cn1)NC(=O)[C@H](CCCNC(=N)N)NC(=O)[C@H](CC(C)C)NC(=O)[C@H](Cc1ccccc1)NC(=O)[C@@H](NC(=O)[C@H](C)NC(=O)[C@H](CC(C)C)NC(=O)[C@H](CCCNC(=N)N)NC(=O)[C@H](CCC(N)=O)NC(=O)[C@@H](NC(=O)[C@H](C)NC(=O)[C@@H]1CSSC[C@H](NC(=O)[C@@H](N)CCCCNC(=O)COCCOCCNC(=O)CC[C@H](NC(=O)CCCCCCCCCCCCCCCCCCC(=O)O)C(=O)O)C(=O)N[C@@H](CC(N)=O)C(=O)N[C@@H]([C@@H](C)O)C(=O)N[C@@H](C)C(=O)N[C@@H]([C@@H](C)O)C(=O)N1)[C@@H](C)O)[C@@H](C)O)C(=O)N1CCC[C@H]1C(=O)N[C@@H](CO)C(=O)N[C@@H](CO)C(=O)N[C@H](C(=O)N1CCC[C@H]1C(=O)N[C@H](C(=O)NCC(=O)N[C@@H](CO)C(=O)N[C@@H](CC(N)=O)C(=O)N[C@H](C(=O)N[C@@H](Cc1ccc(O)cc1)C(N)=O)[C@@H](C)O)C(C)C)[C@@H](C)O, also called 75; compound 75)"
3,0.148,"K([γGlu-C20 diacid])CNTATCATQRLAAFLRHSSPNFGAIPSSTNVGPNTY-NH2 (disulfide 2-7; N-terminus assumed; SMILES CC[C@H](C)[C@H](NC(=O)[C@H](C)NC(=O)CNC(=O)[C@H](Cc1ccccc1)NC(=O)[C@H](CC(N)=O)NC(=O)[C@@H]1CCCN1C(=O)[C@H](CO)NC(=O)[C@H](CO)NC(=O)[C@H](Cc1c[nH]cn1)NC(=O)[C@H](CCCNC(=N)N)NC(=O)[C@H](CC(C)C)NC(=O)[C@H](Cc1ccccc1)NC(=O)[C@H](C)NC(=O)[C@H](C)NC(=O)[C@H](CC(C)C)NC(=O)[C@H](CCCNC(=N)N)NC(=O)[C@H](CCC(N)=O)NC(=O)[C@@H](NC(=O)[C@H](C)NC(=O)[C@@H]1CSSC[C@H](NC(=O)[C@@H](N)CCCCNC(=O)CC[C@H](NC(=O)CCCCCCCCCCCCCCCCCCC(=O)O)C(=O)O)C(=O)N[C@@H](CC(N)=O)C(=O)N[C@@H]([C@@H](C)O)C(=O)N[C@@H](C)C(=O)N[C@@H]([C@@H](C)O)C(=O)N1)[C@@H](C)O)C(=O)N1CCC[C@H]1C(=O)N[C@@H](CO)C(=O)N[C@@H](CO)C(=O)N[C@H](C(=O)N[C@@H](CC(N)=O)C(=O)N[C@H](C(=O)NCC(=O)N1CCC[C@H]1C(=O)N[C@@H](CC(N)=O)C(=O)N[C@H](C(=O)N[C@@H](Cc1ccc(O)cc1)C(N)=O)[C@@H](C)O)C(C)C)[C@@H](C)O, also called 94; compound 94)"
4,0.104,"K([AEEA-γGlu-C20 diacid])CNTATCATQRLASFLRHSSPNFGAIPSSTPVGSNTY-NH2 (disulfide 2-7; N-terminus assumed; SMILES CC[C@H](C)[C@H](NC(=O)[C@H](C)NC(=O)CNC(=O)[C@H](Cc1ccccc1)NC(=O)[C@H](CC(N)=O)NC(=O)[C@@H]1CCCN1C(=O)[C@H](CO)NC(=O)[C@H](CO)NC(=O)[C@H](Cc1c[nH]cn1)NC(=O)[C@H](CCCNC(=N)N)NC(=O)[C@H](CC(C)C)NC(=O)[C@H](Cc1ccccc1)NC(=O)[C@H](CO)NC(=O)[C@H](C)NC(=O)[C@H](CC(C)C)NC(=O)[C@H](CCCNC(=N)N)NC(=O)[C@H](CCC(N)=O)NC(=O)[C@@H](NC(=O)[C@H](C)NC(=O)[C@@H]1CSSC[C@H](NC(=O)[C@@H](N)CCCCNC(=O)COCCOCCNC(=O)CC[C@H](NC(=O)CCCCCCCCCCCCCCCCCCC(=O)O)C(=O)O)C(=O)N[C@@H](CC(N)=O)C(=O)N[C@@H]([C@@H](C)O)C(=O)N[C@@H](C)C(=O)N[C@@H]([C@@H](C)O)C(=O)N1)[C@@H](C)O)C(=O)N1CCC[C@H]1C(=O)N[C@@H](CO)C(=O)N[C@@H](CO)C(=O)N[C@H](C(=O)N1CCC[C@H]1C(=O)N[C@H](C(=O)NCC(=O)N[C@@H](CO)C(=O)N[C@@H](CC(N)=O)C(=O)N[C@H](C(=O)N[C@@H](Cc1ccc(O)cc1)C(N)=O)[C@@H](C)O)C(C)C)[C@@H](C)O, also called 73; compound 73)"
5,0.176,"K([γGlu-C20 diacid])CNTATCATQRLAAFLRHSSPNFGAIPSSTNVGHNTY-NH2 (disulfide 2-7; N-terminus assumed; SMILES CC[C@H](C)[C@H](NC(=O)[C@H](C)NC(=O)CNC(=O)[C@H](Cc1ccccc1)NC(=O)[C@H](CC(N)=O)NC(=O)[C@@H]1CCCN1C(=O)[C@H](CO)NC(=O)[C@H](CO)NC(=O)[C@H](Cc1c[nH]cn1)NC(=O)[C@H](CCCNC(=N)N)NC(=O)[C@H](CC(C)C)NC(=O)[C@H](Cc1ccccc1)NC(=O)[C@H](C)NC(=O)[C@H](C)NC(=O)[C@H](CC(C)C)NC(=O)[C@H](CCCNC(=N)N)NC(=O)[C@H](CCC(N)=O)NC(=O)[C@@H](NC(=O)[C@H](C)NC(=O)[C@@H]1CSSC[C@H](NC(=O)[C@@H](N)CCCCNC(=O)CC[C@H](NC(=O)CCCCCCCCCCCCCCCCCCC(=O)O)C(=O)O)C(=O)N[C@@H](CC(N)=O)C(=O)N[C@@H]([C@@H](C)O)C(=O)N[C@@H](C)C(=O)N[C@@H]([C@@H](C)O)C(=O)N1)[C@@H](C)O)C(=O)N1CCC[C@H]1C(=O)N[C@@H](CO)C(=O)N[C@@H](CO)C(=O)N[C@H](C(=O)N[C@@H](CC(N)=O)C(=O)N[C@H](C(=O)NCC(=O)N[C@@H](Cc1c[nH]cn1)C(=O)N[C@@H](CC(N)=O)C(=O)N[C@H](C(=O)N[C@@H](Cc1ccc(O)cc1)C(N)=O)[C@@H](C)O)C(C)C)[C@@H](C)O, also called 93; compound 93)"
6,0.825,"K([γGlu-C20 diacid])CNTATCATQRLARFLRHSSPNFGAIPSSTPVGSNTY-NH2 (disulfide 2-7; N-terminus assumed; SMILES CC[C@H](C)[C@H](NC(=O)[C@H](C)NC(=O)CNC(=O)[C@H](Cc1ccccc1)NC(=O)[C@H](CC(N)=O)NC(=O)[C@@H]1CCCN1C(=O)[C@H](CO)NC(=O)[C@H](CO)NC(=O)[C@H](Cc1c[nH]cn1)NC(=O)[C@H](CCCNC(=N)N)NC(=O)[C@H](CC(C)C)NC(=O)[C@H](Cc1ccccc1)NC(=O)[C@H](CCCNC(=N)N)NC(=O)[C@H](C)NC(=O)[C@H](CC(C)C)NC(=O)[C@H](CCCNC(=N)N)NC(=O)[C@H](CCC(N)=O)NC(=O)[C@@H](NC(=O)[C@H](C)NC(=O)[C@@H]1CSSC[C@H](NC(=O)[C@@H](N)CCCCNC(=O)CC[C@H](NC(=O)CCCCCCCCCCCCCCCCCCC(=O)O)C(=O)O)C(=O)N[C@@H](CC(N)=O)C(=O)N[C@@H]([C@@H](C)O)C(=O)N[C@@H](C)C(=O)N[C@@H]([C@@H](C)O)C(=O)N1)[C@@H](C)O)C(=O)N1CCC[C@H]1C(=O)N[C@@H](CO)C(=O)N[C@@H](CO)C(=O)N[C@H](C(=O)N1CCC[C@H]1C(=O)N[C@H](C(=O)NCC(=O)N[C@@H](CO)C(=O)N[C@@H](CC(N)=O)C(=O)N[C@H](C(=O)N[C@@H](Cc1ccc(O)cc1)C(N)=O)[C@@H](C)O)C(C)C)[C@@H](C)O, also called 63; compound 63)"
